Biological target: nucleosomes reconstituted in vitro from X. laevis core histones on biotinylated pKYB1 DNA (Xenopus laevis)
Assay: optical tweezers with confocal fluorescence microscopy; nucleosomes on pKYB1 DNA tethered between streptavidin beads, in 1–2 nM fluorescently labelled chaperone; force-extension curves 1–32 pN at 20 nm/s with kymographs at 4 Hz; binding events after unwrapping / at high force (>10 pN); 25 mM HEPES, 50 mM KCl, 0.1 mM EDTA, pH 7.5

Chain of nucleophosmin 1, labelled with Alexa Fluor 532 (P06748 whole entry): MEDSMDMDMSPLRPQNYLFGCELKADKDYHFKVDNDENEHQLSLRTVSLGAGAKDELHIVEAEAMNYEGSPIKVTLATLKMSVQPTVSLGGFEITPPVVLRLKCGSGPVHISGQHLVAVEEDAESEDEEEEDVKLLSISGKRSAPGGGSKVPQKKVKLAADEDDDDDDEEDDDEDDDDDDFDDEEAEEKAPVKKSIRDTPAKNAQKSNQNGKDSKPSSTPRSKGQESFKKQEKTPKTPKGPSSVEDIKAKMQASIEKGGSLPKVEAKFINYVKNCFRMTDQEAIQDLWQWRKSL

**Q.** With “SET/template‐activating factor‐Iβ Q69C, labelled with Alexa Fluor 532 (from UniProt Q01105-2 1-277) (natural protein)” as the substance, how does the percent of the chaperone binding events found after complete unwrapping read?
**A.** Its percent of the chaperone binding events found after complete unwrapping is greater than 90%.

**Q.** With “nucleophosmin 1, labelled with Alexa Fluor 532 (from UniProt P06748 1-294) (natural protein)” as the substance, how does the percent of the chaperone binding events found after complete unwrapping read?
**A.** The percent of the chaperone binding events found after complete unwrapping was greater than 90%.

From PMC10582448
